Results from a protein production outcome set (Wang et al. 2014).

Test: label from the status in PepcDB records

Sequence: MNIRMGTKGKRPLRSLTPRDKIHAIQRIHDGESKASVARDIGVPESTLRGWCKNEDKLRFMSRQSATDNLCADALGDKMDGGGGGGGGAGGGGLLGPPEKRQRLDGALPLNFSNKLKFDELAFKRSPLNGLDYSTNKNLADLGYNGLPVDYAAFNGGVKAKVFGADINRPAADPSLNAISPLSSLTHLSGLTGISQSPLAISFNELTTNLNLLAQLNPGLAAMSGLNSF
- protein production: not failed

Sequence: MNIVIAGAGEVGTHLAKMLSQEEQNIVLIDPNPKRLELAAMRSELLPQVGNPLSPSDLLQANVKYADLFISVMPEEADNILACALASRLGAGKTLARINNNEFLKPDMAQYFRDMGVHTMIYPELLAAREIVSTIKNPWARQYVELFDGALVLVGVKVREGAHIVGKYLHELTRTGNKIFHIVAIKRDLETIIPKGGTQVLHGDIVFFATAQNHLDEVRKLAGKDNPPVHKVVIMGGSRIAIRSIEMIPRNIQVAIIEKDKEKSMRISAIAPTNVQVYNGDGRDSDILIEAGLDQTDVFIALTENSETNVLACLGAKRFGVFKTIAKEENIDYISLADRLDIGTLINKKLLAAGSIYRIFLGEDTSTVKCLTLANADVAELVAHRGAPVTKRPVKDLNIPEGITFGGMVRNGVPQMIHGDTVIEPYDHVVVFCLNTPLNILKDFFG
- protein production: failed

Sequence: MNIVSWKDANDEVAGGATTRREREVKEDQEETEVRATSGKTVIKKQPTSISSSSSSWMKSKDPRIVRVSRAFGGKDRHSKVCTLRGLRDRRVRLSVPTAIQLYDLQERLGVDQPSKAVDWLLDAAKEEIDELPPLPISPENFSIFNHHQSFLNLGQRPGQDPTQLGFKINGCVQKSTTTSREENDREKGENDVVYTNNHHVGSYGTYHNLEHHHHHHQHLSLQADYHSHQLHSLVPFPSQILVCPMTTSPTTTTIQSLFPSSSSAGSGTMETLDPRQMVSHFQMPLMGNSSSSSSQNISTLYSLLHGSSSNNGGRDIDNRMSSVQFNRTNSTTTANMSRHLGSERCTSRGSDHHM
- protein production: failed

Sequence: MNKFLRVLFILVILAMTDAIIFQLFFPTYMGSHSGYGISVGWQREIGIWNVTVLVILITVNLKYDWFYLRAVLMALIIGGLGIGTNHFLSYLQYRHSVNAIGALENYLLVLGWIIGWWLENSSRKRV
- protein production: failed

Sequence: MNKFVKSLLVAGSVAALAACSSSNNDAAGNGAAQTFGGYSVADLQQRYNTVYFGFDKYDITGEYVQILDAHAAYLNATPAAKVLVEGNTDERGTPEYNIALGQRRADAVKGYLAGKGVDAGKLGTVSYGEEKPAVLGHDEAAYSKNRRAVLAY
- protein production: not failed

Sequence: MNKKIFYITILLHLPNLLFSYSTKYDIEVKMSAFVMSLAIIVISSISIGNLVAKIGIPKVIGQITAGIILSPNAFGKIQIPLLFPLGITQIGENYLINEKIFAISTIASIILLFTAGLETDLKLFIKFLPRGGIIGITEVVGTFTSFVLMASIIFNVPLISPTSLFIGIIGTPTSAGIAASILSAKKKMSTSEGVTIISTSIIDDVLSMLMLTSVITISRSISDLDIASSIKAIVQNIVIWLCLTFSLIYISETLSRLLKKLNSVTLATVITLSLALTIASIFQNLGMSFVVGAYVFGLAMSKTDIVYVIQDKLTIFERFFIPIFFTSIGLMSDINEILSKEVLILGLAISAIAIITKSIFCFIPALFLGFNKLGALKIATGMVPRGEVSLIMANVALSSGFISQKIFGIIIIMVFLPTIIATPIINFLFKINKSGLKKELPIDQNTHICVSFEYDNLAKILIWDFKNELRKEGFFTQQIKNDSSQYINARKNNISFSIKREGSKITFECPNNHLIIIQDLFRETILNLEKITKEVETVSLRAKKLDYSINYDKILSNINLNKRIKKENIILELKSSNKADVIRELLSVINIEIDKERIFQDLMEREKLITTALKEGFAIPHLKTNLISKIHIAIGISHEGIDFNALDKNLSHVFILILCPAKDYVSYPRILASVVGKVDLYKKEILNAKTDKEIYNIIVS
- protein production: failed

Sequence: MNKKILATAVLGTGALSTLFAHQAEASTTHTVRSGESLWSISHHYGITVSKLKSLNGLSSNLIFPNQVLKVSGSSNYSSRSNYGNSSSTYTVRAGDSLSSIASRYGTTYRHIMNLNGLNSFLIFPGQQLKVSGSVSSNSHSSYNSNSGGSSSTYTVRYGDSLSSIASRYGTTYQHIMRLNGLNNFFIYPGQKLRVSGSASSNTYSTRSAQSTYYSSPVFNHRNLYDWGQCTWHVFNRRAAIGKGISTYWWNANNWDNAAARDGYRIDGNPTVGSIAQSDAGYYGHVAFVERVNSNGSILVSEMNFSASPGILTYRTIPAYQVRNYKFIH
- protein production: failed

Sequence: MNKKKFENLPKWNNFALFNFLAKDKENSLEVMEASRGFAVPGIVATNYETAEEAANVVKELQTTAPVISVGLGGGGDWQNWRDVLHIARLAPNSHINQPIETAGLTNDLLPETYTNALVRPTGKVGIVKLSSGDEITAEEAVDYCLSANIPSIKFMSIEGTKYLDELVYLTKVAAEKGIYGIEPAGGIGAENILEITTAIKTTGIPFFMPHIFGKTIDKATGRTKPEEIEKIFAALEGK
- protein production: failed

Sequence: MNKLDGIPIPKTYGPLGNLPLLDKNRVSQSLWKIADEMGPIFQFKFADAIGVFVSSHELVKEVSEESRFDKNMGKGLLKVREFSGDGLFTSWTEEPNWRKAHNILLPSFSQKAMKGYHPMMQDIAVQLIQKWSRLNQDESIDVPDDMTRLTLDTIGLCGFNYRFNSFYREGQHPFIESMVRGLSEAMRQTKRFPLQDKLMIQTKRRFNSDVESMFSLVDRIIADRKQAESESGNDLLSLMLHAKDPETGEKLDDENIRYQIITFLIAGHETTSGLLSFAIYLLLKHPDKLKKAYEEADRVLTDPVPSYKQVQQLKYIRMILNESIRLWPTAPAFSLYAKEETVIGGKYLIPKGQSVTVLIPKLHRDQSVWGEDAEAFRPERFEQMDSIPAHAYKPFGNGQRACIGMQFALHEATLVLGMILQYFDLEDHANYQLKIKESLTLKPDGFTIRVRPRKKEAMTAMPGAQPEENGRQEERPSAPAAENTHGTPLLVLYGSNLGTAEEIAKELAEEAREQGFHSRTAELDQYAGAIPAEGAVIIVTASYNGNPPDCAKEFVNWLEHDQTDDLRGVKYAVFGCGNRSWASTYQRIPRLIDSVLEKKGAQRLHKLGEGDAGDDFEGQFESWKYDLWPLLRTEFSLAEPEPNQTETDRQALSVEFVNAPAASPLAKAYQVFTAKISANRELQCEKSGRSTRHIEISLPEGAAYQEGDHLGVLPQNSEVLIGRVFQRFGLNGNEQILISGRNQASHLPLERPVHVKDLFQHCVELQEPATRAQIRELAAHTVCPPHQRELEDLLKDDVYKDQVLNKRLTMLDLLEQYPACELPFARFLALLPPLKPRYYSISSSPQLNPRQTSITVSVVSGPALSGRGHYKGVASNYLAGLEPGDAISCFIREPQSGFRLPEDPETPVIMVGPGTGIAPYRGFLQARRIQRDAGVKLGEAHLYFGCRRPNEDFLYRDELEQAEKDGIVHLHTAFSRLEGRPKTYVQDLLREDAALLIHLLNEGGRLYVCGDGSRMAPAVEQALCEAYRIVQGASREESQSWLSALLEEGRYAKDVWDGGVSQHNVKADCIART
- protein production: failed

Sequence: MNKLNIKEYKTKAGEVRYILRGAYIGTDVLTGKQIKTDIRGRTKTGVKNELERLKNNFKKNGNTKGKESLETFEEVAESFFELYKLQRKIGSIDQMRSNLDNYTLPAFGNKRISKITTAQIQQQVIKWGKSAAAPLNGRQKRTTGQAKRYKLQFNIINRIFQHALSLGIIENNPCQSVIVPQVKVEQAKKEIKFYKKSELAKLFNYLESLKSGQWSNEYFKALLRLLVASGLRIGEAMALSWSDINFQNQTVSVSKTTVRRFQIQDTPKSNKSNRIISIDDKAIYVLKSWYFFQKKHFMKLGNPQQNLVFPKIEGGVMDYHNLIYKLNNIIKNAELPLLSFHGFRRSHASLCLNAEMSYKVIQERLGHSKLQLTMDLYSHLEPEKKNKELELFTKYANF
- protein production: failed

Sequence: MNKQFIILYFNIFLVFLGIGLVVPVLPVYLKDLGLKGSDLGILVAVFALAQMIISPFGGTLADKLGKKLIICIGLGLFAISEFLFAASHTFSLLIVSRILGGFSAGMVMPGVTGMIADISVGRDKAKNFGYMSAIINSGFILGPGMGGFLAEFSHRLPFYVAGFSGCVALILSIALIKNPKNSTQDGFTQYQPELLSKINWKVFLTPIILTLVLAFGLSAFETLFPLYTADKAHYSPLDISFAITGGGIAGAIFQVFFFDKFMKHFKELTFITYALLYSAIILLALTFVHSYWSIMIISFIVFIGFDMIRPAITNYFSNIAGNRQGFAGGLNSTFTSMGNFIGPLVAGTLYDINFEFPLYMSVLVMVLGMFVIFIEKMIRSRFSNI
- protein production: failed

Sequence: MNKQVIVRSACLALFVGLAGGCATGPGGGSIYVPVGSDDRRSAPEPPRTNIPDEQDEQVWRKSEQPTVTEPDSPSTRAPSYSESGDQLPAAALTLVRDADQRLRQGDSAGAIARLERAQRIAPRSSEVYFKLAEAYVAGDNLGAAEQFTLKGLSLAGNDERMQRSGWLLLADIRRARGNVAGADQAEARAAAL
- protein production: failed

Sequence: MNKVITDLDKALSALKDGDTILVGGFGLCGIPEYAIDYIYKKGIKDLIVVSNNCGVDDFGLGILLEKKQIKKIIASYVGENKIFESQMLNGEIEVVLTPQGTLAENLHAGGAGIPAYYTPTGVGTLIAQGKESREFNGKEYILERAITGDYGLIKAYKSDTLGNLVFRKTARNFNPLCAMAAKICVAEVEEIVPAGELDPDEIHLPGIYVQHIYKGEKFEKRIEKITTRSTK
- protein production: failed

Sequence: MNKYLSFIFASVLTLTGVQLSKASNPSDSLAIVSAKWERTSSLQGIQLKQASIEGLFGGKQSISILTIGRAEGYTAFIATTDSLTTTSQLAEQSRSSAAINGSYFSIKEGFSTCYLRKNEAVIDTTTTEERHLRVNGAVHMVDNNIRIIPWNDENEKKGFPLDGDILASGPLLMQDGKTCDFTTIDREFSETRHPRSAIALTKEGDIMLVAVDGRAEGHADGMSIAELAYLLRILKAHCALNLDGGGSTTLWVNGQVVNHPSDNKKFDNKGERKVHNIIAVRRLTNP
- protein production: failed

Sequence: MNLAKGLDVLKISSNVLGEDKVMYIPAIYTEDDATLIDTGLPGQGDLIIDALNKSNTSFDRLKNIIITHHDIDHIGNINYLREKSKNNIKVYAYKSEVSYITGEETPFKLYMLEQMVDKIDDKMLSMLNVMGLGFKSSYTKVDVSLDNHEKLNLGEEIEVIHTGGHTRGHICLYLKESKVLIAGDLLQVENGELKPVDVMHSNKQELKDAIKNISNYDIETIVFSHGGLYQRNIIETLKNLIIE
- protein production: failed

Sequence: MNLAVTVLEIVAPVFLLAAVGFGWVRMGFEYRLQFVTRLGTMLAVPCLIFVALMKTEIPGGDLSRFTLASALAILALTVVFGLIVRFSGLDRRTYLPPLLFGNTGNLGLPLCMFAFGIEGLSYAVVFFSLSALWSFSYGIHVVAGQGSLSKVVREPMVWATLLGALFLSQDWQTPRFLTNALELIGQMAVPLMLITLGVAMARLSIRRIGQALGLSLLKLAICFPVGWLVAQGFGLSGPALGVLVVQMSVPAAVSAYLLAERFGADADAVAGMVMVSTLLAVGALPLVLAAVL
- protein production: failed

Sequence: MNLAYETQSIAERREQLREEGKIELPLNVDTRKYLLSFIRYRDVLISLPLLIAGIVALYIIHRTGIGINSQNVIVCFAPWATFLLLLTIQHPDRKNISFFEHRIVWRIKYNNRQKLFVYTKGDLMGNKKEKDVREQLGISNIYSDCYETTDKRLVKVIKVSSINLSLLNNKEKRMIFQAYETFLNDLPKNLTLQISQIAQPVNLKNYFLFIQEKTSREQDMAKKLLAKGYLDFIDDIQKSKNMVSRNRYVIISKPFTAQNRESVLEELDRQAKILVSQIENMLGGRFQLKAEILNNEELFHLIYTCVDYENAQVNAEIKTSTFPITLGKETYIEMKKRWEKEVTEKII
- protein production: failed

Sequence: MNLCGDSEILKEDDNTKNFARKNPDPYPPTGTSLVYLDHLELCLCSTEWWNLLTCILDDAPKLRVLKLKLYRKHCVEYNESMEPWKQPDYVPICLSSYLEIFEWRQYNGEEQEREVAKYILENASRLKKAIFYLESAEKHGILKELECMARGSKKCQLVFD
- protein production: failed
